Changes are numbered by the printed parent chain. Several values for one entry are separate records, joined by “and”; a condition that tells them apart may be missing. Equal values may be shown once.
Experiments:
Assay in all cases: SPR
[1] = target: T1, BB_1wnu_001 (backbone grafting 2F5 epitope scaffold on parent PDB 1wnu) (designed scaffold on Pyrococcus …)
T1 chain: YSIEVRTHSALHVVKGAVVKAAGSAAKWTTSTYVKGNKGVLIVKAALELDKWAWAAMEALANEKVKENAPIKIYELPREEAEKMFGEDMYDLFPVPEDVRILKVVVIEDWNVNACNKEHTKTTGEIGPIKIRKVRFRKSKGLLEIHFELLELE

[2] = target: T2, BB_2cx5_001 (backbone grafting 2F5 epitope scaffold on parent PDB 2cx5) (designed scaffold on Thermus …)
T2 chain: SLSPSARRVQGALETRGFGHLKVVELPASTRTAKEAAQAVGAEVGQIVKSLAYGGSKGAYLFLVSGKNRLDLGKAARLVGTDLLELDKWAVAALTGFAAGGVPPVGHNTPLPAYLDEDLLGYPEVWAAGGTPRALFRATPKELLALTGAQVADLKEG

[3] = target: T3, SC_2cx5 (side-chain grafting 2F5 epitope scaffold on parent PDB 2cx5) (designed scaffold on Thermus …)
T3 chain: T2 chain with A52V, S56E, A76T, T81G, D82P, L86A, A98D

[4] = target: T4, SC_1wnu (side-chain grafting 2F5 epitope scaffold on parent PDB 1wnu) (designed scaffold on Pyrococcus …)
T4 chain: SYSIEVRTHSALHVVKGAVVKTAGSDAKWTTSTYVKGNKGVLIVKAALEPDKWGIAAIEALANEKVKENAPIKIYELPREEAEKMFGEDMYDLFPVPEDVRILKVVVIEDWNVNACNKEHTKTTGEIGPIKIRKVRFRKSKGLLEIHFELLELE

Kd [1]: 8.3 nM and 8.7 nM | Kd [2]: 1.4 nM | Kd [3]: 0.0402 µM and 0.0383 µM | Kd [4]: 0.091 µM | Kd kinetic, step 1 (conformational change model) [4]: 0.000109 mM | Kd kinetic, step 2 (conformational change model) [4]: 3800 mM
B1: 2F5 monoclonal antibody (2F5 IgG) (antibody, V domains shown)
VH: RITLKESGPPLVKPTQTLTLTCSFSGFSLSDFGVGVGWIRQPPGKALEWLAIIYSDDDKRYSPSLNTRLTITKDTSKNQVVLVMTRVSPVDTATYFCAHRRGPTTLFGVPIARGPVNAMDVWGQGITVTISS
VL: ALQLTQSPSSLSASVGDRITITCRASQGVTSALAWYRQKPGSPPQLLIYDASSLESGVPSRFSGSGSGTEFTLTISTLRPEDFATYYCQQLHFYPHTFGGGTRVDVR
